Reference: paper PMC9922763 (Frontiers in Molecular Biosciences, 2023)
Where no end group is shown, it is not given here.

Molecular target: the molecule itself
Assay: split reporter (BiFC, NanoBiT); BiFC with split Venus in transfected HEK293 cells; percent of fluorescent cells by flow cytometry (Accuri C6 plus) 24 h after transfection

B1: aSyn (61–95) BiFC fusion: aSyn residues 61–95, 17-residue linker, N-terminal or C-terminal fragment of Venus (domain or fragment)
chain: not shown
notes: alpha-synuclein (aSyn), residues 61-95, the non-amyloid-B component (NAC) region, 35 amino acids; 17-amino acid linker between the protein of interest and the Venus fragment; One molecule stands for both constructs, aSVN (Venus 1-173) and aSVC (Venus 155-239); the label in each row tells which was used; A start methionine and residues coded by the restriction sites are not described; also called …
  percent of cells with a fluorescent BiFC signal: 29.3%

B2: IAPP BiFC fusion: human IAPP, 17-residue linker, N-terminal or C-terminal fragment of Venus (peptide)
chain: KCNTATCATQRLANFLVHSSNNFGAILSSTNVGSNTYRPACKIPNDLKQKVMNH
modifications: cysteine pairing not given here; also: fused to N- or C-terminal Venus fragment, not in chain
notes: human islet amyloid polypeptide (IAPP), the 37-amino acid long peptide cut from proIAPP; 17-amino acid linker between the protein of interest and the Venus fragment; One molecule stands for both constructs, IVN (Venus 1-173) and IVC (Venus 155-239); the label in each row tells which was used; a start methionine is not described; also called IVN; IVC; source: HEK293, transfected (pcDNA3.1 zeo+), …
  percent of cells with a fluorescent BiFC signal: 19.7%
